Assay results from patent US20240254227A1 (Alector, published 2024).

T1: murine CD300LB stably expressed on Jurkat cells (mouse, UniProt Q3U497 18-209)
T1 construct: also called muCD300LB; mouse CD300LB
T1 sequence: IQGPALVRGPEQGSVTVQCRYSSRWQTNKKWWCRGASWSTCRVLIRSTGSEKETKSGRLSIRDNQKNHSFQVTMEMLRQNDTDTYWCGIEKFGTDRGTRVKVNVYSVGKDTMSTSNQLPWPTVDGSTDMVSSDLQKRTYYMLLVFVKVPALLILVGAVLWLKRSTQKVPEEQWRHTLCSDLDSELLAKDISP

T2: murine CD300LB-Fc (mouse)
T2 construct: mouse IgG2a-Fc fusion (R&D Systems); the entry is the whole fusion chain; also called mCD300LB; Mouse CD300LB-Fc
T2 chain: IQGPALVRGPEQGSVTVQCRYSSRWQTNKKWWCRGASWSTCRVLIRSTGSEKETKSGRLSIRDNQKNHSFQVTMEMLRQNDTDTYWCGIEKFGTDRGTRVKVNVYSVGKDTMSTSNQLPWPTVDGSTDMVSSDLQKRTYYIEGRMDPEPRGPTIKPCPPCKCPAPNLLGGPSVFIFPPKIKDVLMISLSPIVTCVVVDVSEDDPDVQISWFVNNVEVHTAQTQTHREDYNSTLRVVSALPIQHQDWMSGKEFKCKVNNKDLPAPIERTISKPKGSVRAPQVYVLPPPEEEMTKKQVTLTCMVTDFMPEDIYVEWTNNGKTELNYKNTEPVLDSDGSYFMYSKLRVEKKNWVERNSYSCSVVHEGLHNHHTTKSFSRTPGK


Tests used:
[1] = target: T1, murine CD300LB stably expressed on …; assay: flow cytometry, stable Jurkat cells, 10 ug/mL, isotype subtracted
Experimental: Purified anti-CD300LB antibodies of the present disclosure were analyzed for cross-reactivity to other murine CD300 family members stably expressed in Jurkat cells (generation of which is described above). Cells were counted and labeled with 200 nM CFSE, 500 nM VioBlue, or a combination of the two to discriminate between muCD300LB, Parental cells, CD300F, and the other CD300 family members. Cells were washed thoroughly with PBS containing 2% fetal bovine serum then resuspended at a total of 240,000 cells per well. Purified antibodies at 10 μg/mL were added and incubated for one hour before the cells were washed twice again and stained with an APC-labeled anti-mouse secondary. Cells were then analyzed using a BD FACSCanto II. Antibodies were analyzed for specific binding to muCD300LB by FlowJo software by gating on live cells, then the APC gMFI calculated for each labeled population by subtracting the gMFI of the isotype control. The gMFI results of the analysis are presented below in Table 4.

murine CD300LB-Fc = target: T2, murine CD300LB-Fc; assay: SPR (Carterra LSA), antibody immobilised, Fc fusion at 300 or 600 nM

Row | gMFI [1] [gMFI] | SPR binding (control subtracted) (murine CD300LB-Fc) | Binder
1 | 4570 | 310 | anti-CD300LB antibody CD-16 (antibody, V domains shown) VH: QIQLVQSGPELKKPGETVKISCKASGYTFTDYSMHWVKQAPGKGLKWMAWINTETGEPTYADDFRGRFAFSLETSGRTAYLEINNLRNEDTATYFCVTYGSSYGMAYWGQGTSVTVSS VL: DIVLTQSPASLAVSLGQRATISCRASKSVSRSGYSYLHWYQQKPGQPPKLLIYLASKLESGVPARFSGSGSGTDFTLNIHPVEAEDAATYYCQHNREIPPTFGGGTKLEIK
2 | 7920 | 11.3 | anti-CD300LB antibody CD-17 (antibody, V domains shown) VH: QIQLVQSGPELKKPGETVKISCKASGYTLTDYSMHWVKQAPGKGLKWMGWINTETGEPRYGDDFKGRFAFSLETSASSAYLQINNLKNDDTATYFCATYGRSYGMDFWGQGTSVTVSS VL: DIVLTQSPASLAVSLGQRATISCRASKSVSPSGHSYMHWYQQKPGQPPKLLIYLASNLKSGVPARFSGSGSGTDFTLNIHPVEEGDAATYYCQHNRELPPTFGGGSKLEIK
3 | 2520 | 328 | anti-CD300LB antibody CD-18 (antibody, V domains shown) VH: DVQLQESGPDLVKPSQSLSLTCTVTGYSITSGYSWHWIRQFPDNKLEWMGYILSRGDTNFNPSLKSRISITRSTSNNQFFLHFNSVTTEDTATYYCARDFFDYWGQGTTLTVSS VL: DVLMTQTPLSLPVSLGDQASISCRSSQSIVHSNGNTYLEWYLQKPGQSPKLLIYKVSDRFSGVPDRFSGSGSGTDFTLKISRVEAEDLGVYFCFQGSHVPYTFGGGTKLEIK
4 | 1610 | 370 | anti-CD300LB antibody CD-10 (antibody, V domains shown) VH: QVQLQQSGPELVRPGVSVKISCKGSGYTFTDYAMHWVKQSHVRSREWIGVIGTYNGHTNYNQKFKGKATMTVDKSSSTAYLELARLTSEDSAIYYCARSGSYYYSMDYWGQGTSVTVSS VL: QIVLTQSPAIMSASPGEKVTMTCSASSSVNYMHWYQQKSGTSPKRWIYDTSKLSSGVPARFSGSGSGTSYSLTISTMEAEDAATYYCQQWSSNPPMTFGGGTKLEIK
